From the DeepSol protein solubility set come the findings set out here.

This series in a line: soluble on expression in E. coli; label from the status in PepcDB or PDB records.
In the case of “QVQLVESGGGLVQPGGSLRLSCAASGFTFSSYAMSWFRQAPGKEREIVSAVSGSGGSTYYADSVRGRFTISRDNSKNTLYLQMNSLRAEDTAVYYCAREPRIPRPPSFDYWGQGTLVTVSS”, the “soluble on expression in E. coli” value is on record as “soluble”.
“MLFTIEQLELIKKLQHTGMSSDQLLKAFGELEVPEQLQNNNTIAAALYSPLLVQHLTTPKSETPVKLTVQTVPTPVKSEPQSSNCSSPFEHPICSNAPRPIRSQRTPMKEITTLDDPNELEEFMKQGEEACILDMKTFITQYSLRQTTVAMMTGVSQPYISKLLNGNHRELSLRCRKNIYCWYLNCRRHPNKLAAFLADPTTRLETNGDGELIPQRRERYVFRPILIRMLESFFTQTPFPDLPRRVEIANACNHVLKMDKKGVGLMPKEVVSPQVVSNWFANKRKELRRRSAEASAASTSSASSSASSTANHDSVSVSSMSPRDEETSSRNTTPETAISPSPAVSTFEVSRPSAIISATSSTTSPISIPATIIPSVSPSALELFAMAQQLGVQLPVPFPTLPTHFFPFQMAPFYGNPASILKSE”: the “soluble on expression in E. coli” value was “not soluble”.
Regarding “MSYKFGKLAINKSELCLANVLQAGQSFRWIWDEKLNQYSTTMKIGQQEKYSVVILRQDEENEILEFVAVGDCGNQDALKTHLMKYFRLDVSLKHLFDNVWIPSDKAFAKLSPQGIRILAQEPWETLISFICSSNNNISRITRMCNSLCSNFGNLITTIDGVAYHSFPTSEELTSRATEAKLRELGFGYRAKYIIETARKLVNDKAEANITSDTTYLQSICKDAQYEDVREHLMSYNGVGPKVADCVCLMGLHMDGIVPVDVHVSRIAKRDYQISANKNHLKELRTKYNALPISRKKINLELDHIRLMLFKKWGSYAGWAQGVLFSKEIGGTSGSTTTGTIKKRKWDMIKETEAIVTKQMKLKVELSDLHIKEAKID”, the “soluble on expression in E. coli” value is recorded as “soluble”.
As to “MTTSDSRSFMYRLLKFISRQPIQLSRLFARMLAGLVNTLKLTKTSRTIQLNLKITLPYLNDQQRERIIQNAIRNELTSYMEFFSIWGSSNQKNISRIHHVEGADFFHQAIAENKGIVLIVPHFGTWEIMNAWCAQYTDMTILYKPVKDKDADRFVREARSREQAKLVPTDESGVRQIFKALKQGGTTVILPDHTPNVGGEMVDYFGIPLASSNLSAKLIQKTKAKALFLYAIRNENHGFDMFIEPMDPAIYQGTDHDGTLVIHHAIEDLIRKYPDHYHWSYKRFKA”, the “soluble on expression in E. coli” value was “not soluble”.
With “MHHHHHHSSGRENLYFQGESTRRLILVGRTGAGKSATGNSILGQRRFFSRLGATSVTRACTTGSRRWDKCHVEVVDTPDIFSSQVSKTDPGCEERGHCYLLSAPGPHALLLVTQLGRFTAQDQQAVRQVRDMFGEDVLKWMVIVFTRKEDLAGGSLHDYVSNTENRALRELVAECGGRVCAFDNRATGREQEAQVEQLLGMVEGLVLEHKGAHYSNEVYELAQVLRWAGPEERLRRVAERVAARVQR” the entry was “soluble”.
With “MGNQRHHYNDYEDVRMLKWVARNDKSLGPFGIITWQLYVEAYNCPYSVQSLCGRMRRQIVPNIDYYSRHLKSSDLISLERRFGSRLGAETRKYIRNLAVKTVKIVQVVASRPVEKNSEIEVQKVASLELQAAPTAPTTSAAQLGKTKSPGARTQRIERNDELSRDVFESSCASTIVEPEPPQEEPPQRSHNWKTEMRKIAGQAAQAINDLIRQTVENNDFNKKMFAELENQQNLDHLYGKMFDDPNKADWIMIDVKKFTENHLRMQYFRKIREELHKRFTNQHIIRAVFCFFQFFEYYVTVCVDESTDNYILLMNKVLEMSIKLLPLYIVHC” the entry was “not soluble”; with “MGSDKIHHHHHHMKQPNYYQDVKQFHQTFHHPGADQPTAIPLDRGVKRATWTAEEAVVEFLHQSSQNETEFLAAIETFKAGLDQAVKKSLKETYPVTEVERLVGQGDALTDALYFIMGSFVEAGLEPGPLFEIVQQANMAKLGPDGQPIFRESDQKVMKPDGWLPPEPQLEAEVVRQMKEKA”, “not soluble”.
